In US20200101109A1 (LENTIGEN TECHNOLOGY, published 2020):

B1: m1033-2 (VH-2) human anti-CD33 VH domain binder, soluble (VHH)
VHH: EVQLVESGGGLVQPGGSLRLSCAASGFTFSSYGMSWVRQAPRKGLEWIGEINHSGSTNYNPSLKSRVTISRDNSKNTLYLQMNSLRAEDTATYYCARPLNYYYYYMDVWGKGTTVTVSS
notes: Human heavy chain variable domain only (not camelid), from a phage library, expressed in E. coli HB2151 and purified on Ni-NTA; also called CD33 VH-2; not shown: His and Flag tags
B2: m1033-4 (VH-4) human anti-CD33 VH domain binder, soluble (VHH)
VHH: EVQLVESGGGLVQPGGSLRLSCAASGFTFSSYGMSWVRQAPRQGLEWVANIKQDGSEKYYADSVKGRFTISRDNSKNTLYLQMNSLRAEDTATYYCAKENVDWGQGTLVTVSS
notes: Human heavy chain variable domain only (not camelid), from a phage library, expressed in E. coli HB2151 and purified on Ni-NTA; also called CD33_4; CD33 VH-4; not shown: His and Flag tags
B3: m1033-12 (ScFv12) human anti-CD33 ScFv binder, soluble (scFv)
scFv: QVQLQQSGPGLVKPSQTLSLTCAISGDSVSSNSAAWNWIRQSPSRGLEWLGGTYYRSKWYNDYAVSVKSRIIINADTSKNQFSLQLNSVTPEDTAVYYCARGYYYDSTDWFDPWGQGTLVTVSSGGGGSGGGGSGGGGSSSELTQDPTVSVALGQTVRITCQGDSLRSYYASWYQQKPGQAPVLVIYGKNNRPSGIPDRFSGSSSGNTASLTITGAQAEDEADYYCSSRDGSGHPYLFGPGTKVTVL
notes: also called CD33 ScFv 12; not shown: His and Flag tags
B4: m1033-15 (ScFv15) human anti-CD33 ScFv binder, soluble (scFv)
scFv: EVQLVQSGAEVKKPGESLKISCKGSGYSFTSYWIGWVRQMPGKGLEWMGIIYPGDSDTRYSPSFQGQVTISADKSISTAYLQWSSLKASDTAMYYCARLTTAGGMDVWGQGTTVTVSSGGGGSGGGGSGGGGSEIVLTQSPLSLPVTLGQPASISCRSSQSLVHSDGNTYLSWLHQRPGQPPRLLMYKISNRFSGVTDRFSGSGSGTDFTLKISRVEAEDVGVYYCMQGIHLPLTFGGGTKLEIK
notes: also called CD33 ScFv 15; not shown: His and Flag tags
B5: m1033-10 (ScFv10) human anti-CD33 ScFv binder, soluble (scFv)
scFv: QVQLQQSGPGLVKPSQTLSLTCAISGDSVSSNTAAWNWIRQSPSRGLEWLGRTYYRSKWYNDYAVPVKSRITINPDTSKNQFSLQLNSVTPEDTAVYYCARETYYYGSGSYWDAFDIWGQGTTVTVSSGGGGSGSGGSGGGGSQSVVTQPPSVSAAPGQKVTISCSGSSSNIGNNYVSWYQQLPGTAPKLFIYKNNQRPSEVPDRFSGSKSGTSASLAISGLQSDDEADYYCAAWDDRLNGYVFGTGTKVTVL
notes: also called CD33 ScFv 10; not shown: His and Flag tags
B6: m1033-9 (ScFv9) human anti-CD33 ScFv binder, soluble (scFv)
scFv: QVQLVQSGAEVKKPGESLRISCKGSGFSFPTYWIGWVRQMPGKGLEWMGIIYPGDSDTRYSPSFQGQVTISADKSISTAYLQWSSLKASDTAMYYCARLVGDGYNTGAFDIWGQGTMVTVSSGGGGSGGGGSGGGGSDIVMTHTPLSLSVTPGQPASISCKSSQSLLHSNGKTYLYWYLQKPGQPPQLLIYGASNRFSGVPDRFSGSGSGTDFTLKISRVEAEDVGVYYCMQSIQLPITFGQGTRLEIK
notes: also called CD33 ScFv 9; not shown: His and Flag tags

target: T1, recombinant human CD33 (human, UniProt P20138 18-259, limits assumed); experiment: ELISA, coated recombinant human CD33, purified His/Flag-tagged VH, anti-Flag-HRP
T1 construct: also called coated CD33
Experimental: (§1) 50 μl of the diluted recombinant human CD33 in PBS at 2 ug/ml was coated in a 96-well plate at 4° C. overnight. Purified ScFv or VHs (from above) with His and Flag tags were serially diluted and added into the target protein coated wells. After washing, a 1:3000 diluted HRP conjugated anti-Flag antibody was added for 1 hr at RT. After washing, 3, 3, 5, 5′-Tetramethylbenzidine (TMB) substrate was added, 1N H₂SO₄ was added to stop the reaction after incubation at room temperature for 10 minutes, and the O.D. was read at 450 nm to quantify the relative ability of ScFv to bind CD33.

T1 sequence (P20138 18-259 limits assumed): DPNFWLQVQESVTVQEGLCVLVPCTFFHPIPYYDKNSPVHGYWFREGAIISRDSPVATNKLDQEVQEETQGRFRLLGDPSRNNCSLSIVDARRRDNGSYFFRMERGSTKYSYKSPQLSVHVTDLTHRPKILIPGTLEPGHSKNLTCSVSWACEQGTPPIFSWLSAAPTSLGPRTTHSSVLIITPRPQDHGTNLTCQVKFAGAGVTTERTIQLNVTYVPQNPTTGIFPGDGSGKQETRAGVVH

Binder	binding result
B1	binds
B2	binds

target: T1, recombinant human CD33; experiment: ELISA, coated recombinant human CD33, purified His/Flag-tagged ScFv, anti-Flag-HRP
Experimental: as §1

Binder	binding result
B3	binds
B4	binds
B5	binds
B6	binds
